In patent US20230159643A1 (H LUNDBECK A S, published 2023):
Blank lines part the entries; values can stand above or below the binder they belong to.

Legend:
[1] = target: T1, Sortilin SORTECDBAP_hB01-05 (human/tetraodon chimera); test: BLI Octet 384RED (Example 8), Sortilin construct in solution
T1 construct: Shuffle construct
T1 chain: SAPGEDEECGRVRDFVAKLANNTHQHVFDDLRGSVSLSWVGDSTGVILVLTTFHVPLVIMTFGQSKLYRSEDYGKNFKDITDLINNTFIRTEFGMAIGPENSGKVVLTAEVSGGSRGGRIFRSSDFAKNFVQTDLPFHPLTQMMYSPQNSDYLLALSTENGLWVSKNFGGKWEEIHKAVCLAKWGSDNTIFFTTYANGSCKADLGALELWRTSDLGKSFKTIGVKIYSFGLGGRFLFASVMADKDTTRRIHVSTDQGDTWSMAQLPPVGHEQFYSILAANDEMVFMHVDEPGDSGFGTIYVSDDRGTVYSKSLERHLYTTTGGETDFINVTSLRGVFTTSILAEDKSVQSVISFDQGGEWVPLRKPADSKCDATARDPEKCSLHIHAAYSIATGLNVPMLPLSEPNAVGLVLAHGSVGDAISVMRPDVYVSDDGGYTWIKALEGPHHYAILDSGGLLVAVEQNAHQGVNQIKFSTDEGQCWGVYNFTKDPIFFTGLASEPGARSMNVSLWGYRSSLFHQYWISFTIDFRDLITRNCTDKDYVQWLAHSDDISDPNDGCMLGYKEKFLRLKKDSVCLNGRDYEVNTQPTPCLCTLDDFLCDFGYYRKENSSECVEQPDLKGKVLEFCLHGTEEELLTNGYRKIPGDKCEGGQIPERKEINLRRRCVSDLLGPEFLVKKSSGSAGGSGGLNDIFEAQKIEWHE
Method: (§1) Binding kinetics of anti-Sortilin HuMab antibodies to Sortilin were determined using Octet 384RED (Fortebio, Menlo Park, USA). HuMab solutions of 2 μg/ml were made by dilution in sample diluent (ForteBio, art. No. 18-5028). Prot A sensors (ForteBio, art. no. 18-0004) were prewetted with kinetics buffer (1:10 sample diluent in PBS) for at least 600 seconds. Subsequently sensors were immobilized with HuMab solution for 600 seconds. A baseline response was obtained by dipping in kinetics buffer for 120 seconds. Association of SORTECD constructs was performed during a 1000 seconds incubation. This was followed by dissociation in kinetics buffer for 100 seconds. After dissociation, sensors were regenerated (10 mM Glycine pH 1.0) and neutralized (kinetics buffer) 3 times for 5 seconds. […] A molecular weight of 76.8 kDA was used for SORTECDHis. Data was fitted with ForteBio Analysis 6.4 software, using a global full fit.

[2] = target: T2, Sortilin hSORTECDBAP (human, UniProt Q99523 78-755, biotinylated on the BAP tag by co-expression of biotin ligase); test: as above
T2 construct: Soluble extracellular region (ECD, aa 1-755) with BAP tag
T2 sequence: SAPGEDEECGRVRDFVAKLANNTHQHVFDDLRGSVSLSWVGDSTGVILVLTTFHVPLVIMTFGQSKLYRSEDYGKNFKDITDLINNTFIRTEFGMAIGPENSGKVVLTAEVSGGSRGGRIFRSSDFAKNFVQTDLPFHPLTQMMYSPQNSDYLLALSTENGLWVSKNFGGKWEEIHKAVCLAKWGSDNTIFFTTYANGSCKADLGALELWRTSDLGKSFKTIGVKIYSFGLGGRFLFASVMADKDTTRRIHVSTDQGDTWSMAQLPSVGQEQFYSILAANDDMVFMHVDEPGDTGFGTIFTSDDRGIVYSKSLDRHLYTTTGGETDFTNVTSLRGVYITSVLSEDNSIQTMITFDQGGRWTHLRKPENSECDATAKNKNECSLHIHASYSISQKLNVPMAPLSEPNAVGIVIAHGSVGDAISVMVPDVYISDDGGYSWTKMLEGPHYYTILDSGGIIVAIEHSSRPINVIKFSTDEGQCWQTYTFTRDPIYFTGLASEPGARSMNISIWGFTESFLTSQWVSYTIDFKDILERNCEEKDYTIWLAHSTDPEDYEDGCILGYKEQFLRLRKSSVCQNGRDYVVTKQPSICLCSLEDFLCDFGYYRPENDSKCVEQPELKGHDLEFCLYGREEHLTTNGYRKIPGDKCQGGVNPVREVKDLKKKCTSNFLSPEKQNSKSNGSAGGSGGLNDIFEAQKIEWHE
Method: as §1

[3] = target: T3, human wild type Sortilin on S18-HEK cells (human, UniProt Q99523 78-831); test: cell-based or functional assay
T3 sequence: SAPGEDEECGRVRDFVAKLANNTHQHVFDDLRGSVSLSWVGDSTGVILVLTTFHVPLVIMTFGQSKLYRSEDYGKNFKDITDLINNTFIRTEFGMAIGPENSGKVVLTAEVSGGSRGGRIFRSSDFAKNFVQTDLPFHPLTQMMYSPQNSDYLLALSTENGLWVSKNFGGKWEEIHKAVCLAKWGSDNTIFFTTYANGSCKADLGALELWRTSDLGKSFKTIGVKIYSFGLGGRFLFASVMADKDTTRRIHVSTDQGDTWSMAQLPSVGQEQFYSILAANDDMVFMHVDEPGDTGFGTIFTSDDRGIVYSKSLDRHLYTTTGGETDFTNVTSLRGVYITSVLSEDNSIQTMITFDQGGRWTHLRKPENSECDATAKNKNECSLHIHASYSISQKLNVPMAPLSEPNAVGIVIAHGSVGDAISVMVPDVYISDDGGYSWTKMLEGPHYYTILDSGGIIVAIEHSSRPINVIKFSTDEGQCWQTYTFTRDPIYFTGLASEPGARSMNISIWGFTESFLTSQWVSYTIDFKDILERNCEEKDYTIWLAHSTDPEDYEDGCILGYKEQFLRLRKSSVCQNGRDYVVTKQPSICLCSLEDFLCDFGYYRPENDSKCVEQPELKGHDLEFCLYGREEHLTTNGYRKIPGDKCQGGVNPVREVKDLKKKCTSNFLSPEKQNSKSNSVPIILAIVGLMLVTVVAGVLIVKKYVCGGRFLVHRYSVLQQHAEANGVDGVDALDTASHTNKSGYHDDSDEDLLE

- binding result [1]: no binding (tested: 10 µg/ml construct)
- EC50 [2]: 1.56 ng/mL
- extracellular PGRN in medium of Sortilin over-expressing HEK cells (ELISA), % of untreated control [3]: 282%
B1: Antibody 1F2 (antibody, V domains shown)
VH: EVQLVESGGDLVKPGGSLKLSCAASGFTFSSYGMSWVRQTPDKRLEWVAIISSGGSYTHYPDSVKGRFTISRDNAKNTLYLQMSSLKSEDTAMYYCARLCGPLCSGYWGQGTSVTVSS
VL: QAVVTQESALTTSPGETVTLTCRSSTGAVTTSNYANWVQEKPDHLFTGLIGGTNNRAPGVPARFSGSLIGDKAALTITGAQTEDEAIYFCALWYSNHFWVFGGGTKLTVLG
notes: Mouse anti-human Sortilin monoclonal antibody from hybridoma (BALB/c), purified on protein G; Assigned to the D Region; also called 1F2F4; Ab 1F2

- binding result [1]: no binding (tested: 10 µg/ml construct)
- EC50 [2]: 1.14 ng/mL
- extracellular PGRN in medium of Sortilin over-expressing HEK cells (ELISA), % of untreated control [3]: 177%
B2: Antibody 5E1 (antibody, V domains shown)
VH: EVHLVESGGDLVNPGGSLKLSCEASGFIFSIYGMSWVRQTPDKRLEWVAMISSGGIYTQYPDSVKGRFTISRDNAKNTLYLQMSGLKSEDTGTYHCTRHDDSWFAYWGQGTLVTVSA
VL: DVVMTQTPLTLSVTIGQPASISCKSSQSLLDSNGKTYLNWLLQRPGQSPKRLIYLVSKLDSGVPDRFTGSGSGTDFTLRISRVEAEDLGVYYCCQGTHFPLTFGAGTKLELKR
notes: Mouse anti-human Sortilin monoclonal antibody from hybridoma (BALB/c), purified on protein G; Assigned to the D Region; also called 5E1F6; Ab 5E1

- extracellular PGRN in medium of Sortilin over-expressing HEK cells (ELISA), % of untreated control [3]: 114%
B3: 1320 (antibody, V domains shown)
VH: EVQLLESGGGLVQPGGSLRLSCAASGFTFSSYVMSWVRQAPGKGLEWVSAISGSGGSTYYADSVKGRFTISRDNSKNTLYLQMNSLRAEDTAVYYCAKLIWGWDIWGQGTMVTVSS
VL: EIVLTQSPATLSLSPGERATLSCRASQSVSSYLAWYQQRPGQAPRLLIYDASNRATGIPARFSGSGSGTDFTLSISSLEPEDFAVYYCQQRTNWSITFGQGTRLEIK
notes: also called IgG1-6003-1320; Antibody 1320
